# Source: PMC3103431, “The four Zn fingers of MBNL1 provide a flexible platform for recognition of its RNA binding elements”
# T1: MBNL1 (2-260) (Homo sapiens, UniProt Q9NR56 2-260)
# T1 sequence: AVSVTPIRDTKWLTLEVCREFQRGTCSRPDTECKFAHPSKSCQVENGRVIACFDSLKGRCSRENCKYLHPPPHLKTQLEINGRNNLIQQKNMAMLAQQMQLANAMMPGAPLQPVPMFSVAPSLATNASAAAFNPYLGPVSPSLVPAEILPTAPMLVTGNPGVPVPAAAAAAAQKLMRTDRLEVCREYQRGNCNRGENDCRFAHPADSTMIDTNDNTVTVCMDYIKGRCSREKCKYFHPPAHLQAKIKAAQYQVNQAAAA
# What was measured:
# MBNL1 (2-260) [1] = biological target: T1, MBNL1 (2-260); assay: EMSA; 5 mM Mg2+; 100 mM NaCl, 21 mM Tris pH 7.5, 5 mM MgCl2, 0.1 mM EDTA, 2 mg/mL BSA, 0.1 mg/mL heparin, 0.5 mM BME, 5 mM DTT, 0.02% Triton X-100, 10% glycerol, 0.02 nM RNA, room temperature 30 min; settings: protein: recombinant; tags: GST tag removed; label: 5' 32P; single-stranded
# MBNL1 (2-260) [2] = biological target: T1, MBNL1 (2-260); assay: as above; settings: protein: recombinant, tags: GST tag removed, label: 5' 32P
# MBNL1 (2-260) [3] = biological target: T1, MBNL1 (2-260); assay: as above; settings: protein: recombinant; tags: GST tag removed; label: 5' 32P; single-stranded; remark: listed apart in the source
# MBNL1 (2-260) [4] = biological target: T1, MBNL1 (2-260); assay: EMSA; 5 mM Mg2+; smearing; 100 mM NaCl, 21 mM Tris pH 7.5, 5 mM MgCl2, 0.1 mM EDTA, 2 mg/mL BSA, 0.1 mg/mL heparin, 0.5 mM BME, 5 mM DTT, 0.02% Triton X-100, 10% glycerol, 0.02 nM RNA, room temperature 30 min; settings: protein: recombinant; tags: GST tag removed; label: 5' 32P; single-stranded
# MBNL1 (2-260) [5] = biological target: T1, MBNL1 (2-260); assay: competition; vs 32P-2GC 0.02 nM, 33.3 nM MBNL1; 100 mM NaCl, 21 mM Tris pH 7.5, 5 mM MgCl2, 0.1 mM EDTA, 2 mg/mL BSA, 0.1 mg/mL heparin, 0.5 mM BME, 5 mM DTT, 0.02% Triton X-100, 10% glycerol, 0.02 nM RNA, room temperature 30 min; settings: protein: recombinant; tags: GST tag removed; label: 5' 32P; single-stranded
# MBNL1 (2-260) [6] = biological target: T1, MBNL1 (2-260); assay: EMSA; 5 mM Mg2+; smearing; 100 mM NaCl, 21 mM Tris pH 7.5, 5 mM MgCl2, 0.1 mM EDTA, 2 mg/mL BSA, 0.1 mg/mL heparin, 0.5 mM BME, 5 mM DTT, 0.02% Triton X-100, 10% glycerol, 0.02 nM RNA, room temperature 30 min; settings: protein: recombinant; tags: GST tag removed; label: 5' 32P; single-stranded; remark: listed apart in the source
# MBNL1 (2-260) [7] = biological target: T1, MBNL1 (2-260); assay: EMSA; 5 mM Mg2+; range for 2, 3 and 4 GC RNAs; 100 mM NaCl, 21 mM Tris pH 7.5, 5 mM MgCl2, 0.1 mM EDTA, 2 mg/mL BSA, 0.1 mg/mL heparin, 0.5 mM BME, 5 mM DTT, 0.02% Triton X-100, 10% glycerol, 0.02 nM RNA, room temperature 30 min; settings: protein: recombinant; tags: GST tag removed; label: 5' 32P; single-stranded
# MBNL1 (2-260) [8] = biological target: T1, MBNL1 (2-260); assay: EMSA; 5 mM Mg2+; wild type level; 100 mM NaCl, 21 mM Tris pH 7.5, 5 mM MgCl2, 0.1 mM EDTA, 2 mg/mL BSA, 0.1 mg/mL heparin, 0.5 mM BME, 5 mM DTT, 0.02% Triton X-100, 10% glycerol, 0.02 nM RNA, room temperature 30 min; settings: protein: recombinant; tags: GST tag removed; label: 5' 32P; single-stranded
binder,measurement,setting,value
CCCGCCCCCCCCCCCCCCGCCCC (ssRNA) [C],Kd,MBNL1 (2-260) [1],111 nM
UUGGCGUUUUUUUUUUUGGCGUU (ssRNA) [GGCG],binding signal,MBNL1 (2-260) [2],40 fold weaker than 2GC
AAUGCUAAAAAAAAAAAUGCUAA (ssRNA) [A4],binding signal,MBNL1 (2-260) [3],> 10 fold weaker than 2GC
UUUGCUUUUUUUUUUUUUUUUUU (ssRNA) [1GC],Kd,MBNL1 (2-260) [4],45 nM
same,binding signal,MBNL1 (2-260) [5],15 fold weaker than 2GC
UUUGCUUUUUUUUUUUUUGCUUU (ssRNA) [2GC],Kd,MBNL1 (2-260) [1],11 nM
UCCUUUUUUUUUCCUGCUUUUUUUUUCCU (ssRNA) [1GC#2],binding signal,MBNL1 (2-260) [6],~5 fold higher Kd than the 2-4 GC 29-nt RNAs
UGCUUUUUUUUUGCUGCUUUUUUUUUGCU (ssRNA) [4GC],Kd,MBNL1 (2-260) [7],3.16 nM
CCUGCUCCCCCCCCCCCUGCUCC (ssRNA) [C4],binding result,MBNL1 (2-260) [8],binds
UUCGCCUUUUUUUUUUUCGCCUU (ssRNA) [CGCC],Kd,MBNL1 (2-260) [1],7 nM
UUAGCAUUUUUUUUUUUAGCAUU (ssRNA) [AGCA],binding signal,MBNL1 (2-260) [2]; single-stranded,5 fold weaker than 2GC
